Data on three substances can be found in patent publication US20180339042A1.

Assay [1] addresses human GITR, membrane bound (human) (UniProt Q9Y5U5). Description: cell-based or functional assay.
For assay [2], the target named is activated T cells (UniProt Q9Y5U5). The assay can be described thus: FACS binding, activated T cells; isotype control.

pEC50: −log10 of the molar value.

Sequence of activated T cells (Q9Y5U5 26-241): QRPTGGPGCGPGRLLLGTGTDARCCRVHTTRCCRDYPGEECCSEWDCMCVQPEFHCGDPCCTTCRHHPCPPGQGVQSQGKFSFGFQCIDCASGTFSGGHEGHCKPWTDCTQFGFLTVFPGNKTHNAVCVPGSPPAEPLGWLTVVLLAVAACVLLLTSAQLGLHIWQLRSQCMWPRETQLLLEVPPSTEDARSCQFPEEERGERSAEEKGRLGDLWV
Sequence of human GITR, membrane bound (human) (Q9Y5U5 26-241): as above

In assay [1], hIgG1 Isotype Control (antibody) returned an NFKB signaling (phospho-p65), CD4+ T cells, Emax (%) of 4% and an NFKB signaling (phospho-p65), CD8+ T cells, Emax (%) of 6%.

As to unrelated hIgG1, the negative-log EC50 (pEC50) (commonly the EC50 on a negative log10 scale, so that one unit is a factor of ten) in assay [2] was 6.88.

As to unrelated hIgG2, in assay [2], the pEC50 is 8.17.
